Where “and” joins values, the source holds several entries; their conditions need not be identical. Equal entries are not always repeated.
What was measured:
[1] = test system: Dnp-GPLQFRG-NH2
[2] = test system: Dnp-GPINLHG-NH2
[3] = test system: Dnp-GPLGFRGC(Me)-NH2
[4] = test system: Dabcyl-GPLGMRGC(Fluorescein)-NH2
[5] = test system: Dnp-GPVNLHG-NH2
[6] = test system: Dnp-GPRPFRG-NH2
[7] = test system: Dnp-GPAPLHGC(Me)-NH2
[8] = test system: Dnp-GPLSFQG-NH2
[9] = test system: Dnp-PINLHG-NH2
[10] = test system: Dnp-GPLSISG-NH2
[11] = test system: Dnp-DEGPMGLKC(Me)YLG-NH2
[12] = test system: Dnp-GPLPFRGC(Me)-NH2
[13] = test system: Dnp-GPLPFRVC(Me)-NH2
[14] = test system: Dnp-GPLPLHGC(Me)-NH2
[15] = test system: Dnp-GPVNFRVC(Me)-NH2
[16] = biological target: type IV collagen (UniProt P08572)
[17] = test system: Dnp-GPAPFRGC(Me)-NH2
[18] = test system: Dnp-GPLPFHVC(Me)-NH2
[19] = test system: Dnp-GPAPFRVC(Me)-NH2
[20] = test system: Dnp-GPSGIHV-NH2
[21] = test system: Dnp-GPKGMRG-NH2
[22] = test system: Dnp-VC(Me)PKGITSC(Me)VFR-NH2
[23] = test system: Dnp-GPHPMRG-NH2
[24] = test system: Dnp-VTPYNMRG-NH2
[25] = test system: Dnp-GPSELKG-NH2
[26] = test system: Dnp-PHPFRG-NH2
[27] = test system: Dab-SYPSGIHLC(Flu)LQR-NH2
[28] = test system: Dnp-GPMSYNG-NH2
[29] = test system: Dnp-GPAPLHVC(Me)-NH2
[30] = test system: Dnp-GPLQMRG-NH2
[31] = test system: Dnp-GPHPFRG-NH2
[32] = test system: Dabcyl-GPVNLHGC(Flu)-NH2
[33] = test system: Dnp-GPLGMRG-NH2
[34] = test system: Dnp-PLGMRG-NH2
[35] = test system: Dnp-PSGIHL-NH2
[36] = test system: Dnp-GPLGLHVC(Me)-NH2
[37] = test system: Dnp-GPVNLHGRC(Me)-NH2
[38] = test system: Dnp-GPLGFRVC(Me)-NH2
[39] = test system: Dnp-GPLGLHGC(Me)-NH2
[40] = test system: Dnp-GPVNLHGC(Me)-NH2
[41] = test system: Dabcyl-GPHPFRGC(Flu)-NH2
[42] = test system: Dnp-GPLSIQD-NH2
[43] = test system: Dnp-GPKGITS-NH2
[44] = test system: Dnp-GPSPLHGC(Me)-NH2
[45] = test system: Dnp-GPFGLKG-NH2
[46] = test system: biglycan
[47] = test system: Dnp-GPYGMRA-NH2
[48] = test system: Dnp-GPSPFHVC(Me)-NH2
[49] = test system: Dnp-GPSPFRGC(Me)-NH2
[50] = test system: Dnp-GPSGIHL-NH2

Chain of gelatinase B (chain, as listed by the source): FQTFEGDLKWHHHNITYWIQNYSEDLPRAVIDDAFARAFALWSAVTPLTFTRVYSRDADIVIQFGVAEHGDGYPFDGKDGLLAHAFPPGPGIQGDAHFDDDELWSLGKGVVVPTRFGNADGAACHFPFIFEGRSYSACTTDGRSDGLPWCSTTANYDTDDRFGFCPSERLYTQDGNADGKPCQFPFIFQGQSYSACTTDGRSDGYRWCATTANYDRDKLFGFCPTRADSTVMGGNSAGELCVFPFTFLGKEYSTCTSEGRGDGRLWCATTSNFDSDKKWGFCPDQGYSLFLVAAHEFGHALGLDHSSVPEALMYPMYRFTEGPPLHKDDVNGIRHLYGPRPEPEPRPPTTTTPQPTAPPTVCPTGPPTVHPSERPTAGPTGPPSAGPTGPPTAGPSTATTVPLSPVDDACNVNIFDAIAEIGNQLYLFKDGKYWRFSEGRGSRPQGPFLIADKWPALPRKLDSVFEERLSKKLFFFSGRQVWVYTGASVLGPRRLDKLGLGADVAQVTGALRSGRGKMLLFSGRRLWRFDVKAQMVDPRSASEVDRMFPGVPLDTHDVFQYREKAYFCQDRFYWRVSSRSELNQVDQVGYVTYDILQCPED
Chain of type IV collagen (P08572 26-1712, chain 1 of 2): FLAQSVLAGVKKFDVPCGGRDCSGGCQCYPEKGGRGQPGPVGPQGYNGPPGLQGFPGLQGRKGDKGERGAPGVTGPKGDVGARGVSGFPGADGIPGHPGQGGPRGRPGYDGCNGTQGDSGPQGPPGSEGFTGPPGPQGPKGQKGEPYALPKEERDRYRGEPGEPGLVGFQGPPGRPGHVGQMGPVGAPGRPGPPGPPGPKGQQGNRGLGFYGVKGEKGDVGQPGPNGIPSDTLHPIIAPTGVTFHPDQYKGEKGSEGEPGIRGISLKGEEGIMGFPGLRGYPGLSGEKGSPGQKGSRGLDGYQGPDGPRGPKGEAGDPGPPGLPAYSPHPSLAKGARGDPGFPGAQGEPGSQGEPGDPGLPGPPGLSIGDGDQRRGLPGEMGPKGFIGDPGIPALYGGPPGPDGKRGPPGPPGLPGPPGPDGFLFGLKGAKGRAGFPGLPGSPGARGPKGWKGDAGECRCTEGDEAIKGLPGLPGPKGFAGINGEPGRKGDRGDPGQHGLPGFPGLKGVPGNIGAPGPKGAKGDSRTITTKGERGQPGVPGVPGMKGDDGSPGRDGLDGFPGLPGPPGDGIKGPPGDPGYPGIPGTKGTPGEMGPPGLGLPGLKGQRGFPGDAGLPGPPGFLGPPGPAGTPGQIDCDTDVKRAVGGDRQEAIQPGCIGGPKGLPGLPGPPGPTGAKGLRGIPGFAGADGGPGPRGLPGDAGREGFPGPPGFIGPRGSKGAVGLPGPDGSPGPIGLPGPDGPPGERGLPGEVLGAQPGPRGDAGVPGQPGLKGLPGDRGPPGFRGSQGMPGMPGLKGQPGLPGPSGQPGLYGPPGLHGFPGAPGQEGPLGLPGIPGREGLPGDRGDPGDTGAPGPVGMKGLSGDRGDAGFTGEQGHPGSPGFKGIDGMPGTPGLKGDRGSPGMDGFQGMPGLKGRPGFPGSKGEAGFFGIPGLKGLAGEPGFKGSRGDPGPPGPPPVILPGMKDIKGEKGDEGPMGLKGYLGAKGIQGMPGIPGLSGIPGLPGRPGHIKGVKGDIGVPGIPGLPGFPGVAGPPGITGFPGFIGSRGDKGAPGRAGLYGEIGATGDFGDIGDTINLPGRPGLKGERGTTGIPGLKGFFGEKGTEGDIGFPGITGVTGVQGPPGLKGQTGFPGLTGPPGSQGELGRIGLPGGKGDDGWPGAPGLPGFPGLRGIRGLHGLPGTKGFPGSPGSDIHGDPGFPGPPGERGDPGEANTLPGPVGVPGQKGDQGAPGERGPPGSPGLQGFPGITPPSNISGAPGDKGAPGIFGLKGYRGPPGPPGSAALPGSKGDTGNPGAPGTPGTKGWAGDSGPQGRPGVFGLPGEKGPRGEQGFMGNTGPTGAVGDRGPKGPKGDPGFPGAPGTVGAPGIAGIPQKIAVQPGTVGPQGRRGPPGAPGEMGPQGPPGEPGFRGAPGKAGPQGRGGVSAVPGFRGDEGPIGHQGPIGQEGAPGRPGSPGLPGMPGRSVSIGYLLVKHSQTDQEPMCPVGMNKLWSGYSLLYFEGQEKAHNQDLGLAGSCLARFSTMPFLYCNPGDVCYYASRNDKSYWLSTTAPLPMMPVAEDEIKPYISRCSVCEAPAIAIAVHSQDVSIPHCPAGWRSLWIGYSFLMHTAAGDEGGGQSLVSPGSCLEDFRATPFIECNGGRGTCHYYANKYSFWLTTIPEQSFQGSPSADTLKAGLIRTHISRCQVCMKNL
Chain of type IV collagen (chain, as listed by the source, chain 2 of 2): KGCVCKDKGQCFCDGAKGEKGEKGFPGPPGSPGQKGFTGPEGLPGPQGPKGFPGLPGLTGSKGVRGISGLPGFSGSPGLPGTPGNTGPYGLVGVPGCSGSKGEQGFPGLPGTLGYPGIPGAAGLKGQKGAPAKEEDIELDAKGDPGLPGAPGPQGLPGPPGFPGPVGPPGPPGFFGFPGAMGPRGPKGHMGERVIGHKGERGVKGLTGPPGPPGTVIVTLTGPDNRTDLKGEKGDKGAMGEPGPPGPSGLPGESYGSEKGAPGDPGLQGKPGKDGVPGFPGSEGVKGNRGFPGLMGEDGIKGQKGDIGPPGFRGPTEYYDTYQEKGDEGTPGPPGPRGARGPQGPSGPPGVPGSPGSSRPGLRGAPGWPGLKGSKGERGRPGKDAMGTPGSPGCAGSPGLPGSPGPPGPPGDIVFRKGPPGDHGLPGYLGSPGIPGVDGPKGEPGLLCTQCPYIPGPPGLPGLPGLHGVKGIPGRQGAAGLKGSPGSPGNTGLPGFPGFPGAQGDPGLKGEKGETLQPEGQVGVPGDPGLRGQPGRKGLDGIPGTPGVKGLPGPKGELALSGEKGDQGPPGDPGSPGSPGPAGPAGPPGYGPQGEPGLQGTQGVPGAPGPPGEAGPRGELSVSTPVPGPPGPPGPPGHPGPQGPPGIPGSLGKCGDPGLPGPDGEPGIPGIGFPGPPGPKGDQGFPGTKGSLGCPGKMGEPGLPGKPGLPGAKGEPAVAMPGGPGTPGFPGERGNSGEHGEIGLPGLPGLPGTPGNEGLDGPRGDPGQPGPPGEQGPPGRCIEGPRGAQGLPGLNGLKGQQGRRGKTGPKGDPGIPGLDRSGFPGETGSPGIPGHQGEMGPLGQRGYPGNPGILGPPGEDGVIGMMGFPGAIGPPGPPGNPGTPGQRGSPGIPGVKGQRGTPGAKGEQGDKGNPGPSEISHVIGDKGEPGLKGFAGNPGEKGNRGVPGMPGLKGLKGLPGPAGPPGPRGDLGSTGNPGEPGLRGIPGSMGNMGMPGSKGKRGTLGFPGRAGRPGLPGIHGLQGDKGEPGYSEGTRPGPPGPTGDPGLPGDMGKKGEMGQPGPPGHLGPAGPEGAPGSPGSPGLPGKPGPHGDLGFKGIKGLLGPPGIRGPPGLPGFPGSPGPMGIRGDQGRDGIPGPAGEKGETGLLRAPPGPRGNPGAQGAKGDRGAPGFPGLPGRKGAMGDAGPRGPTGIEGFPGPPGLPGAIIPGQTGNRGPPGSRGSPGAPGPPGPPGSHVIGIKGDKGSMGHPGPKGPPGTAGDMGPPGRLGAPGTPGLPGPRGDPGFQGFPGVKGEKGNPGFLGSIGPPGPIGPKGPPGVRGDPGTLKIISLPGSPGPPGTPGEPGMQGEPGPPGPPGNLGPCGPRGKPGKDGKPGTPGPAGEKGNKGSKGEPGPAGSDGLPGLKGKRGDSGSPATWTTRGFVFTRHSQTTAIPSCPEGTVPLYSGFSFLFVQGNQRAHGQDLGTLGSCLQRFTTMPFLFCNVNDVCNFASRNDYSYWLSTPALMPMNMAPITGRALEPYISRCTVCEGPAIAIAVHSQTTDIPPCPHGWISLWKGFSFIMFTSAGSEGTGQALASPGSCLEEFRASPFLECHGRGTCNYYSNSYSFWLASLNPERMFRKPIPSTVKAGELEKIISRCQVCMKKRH

Q: With human Collagenase-3 as the substance, how does the Specificity Constant (kcat/Km) [1] read?
A: 705000 1/sM

Q: And the Specificity Constant (kcat/Km) [2]?
A: 700000 1/sM

Q: What about the Specificity Constant (kcat/Km) [3] of the same substance?
A: 2.4e+06 1/sM

Q: And the Specificity Constant [4]?
A: 4.4e+06 1/sM and 1.62e+06 1/sM

Q: And the Specificity Constant, + Gel [4]?
A: 1.74e+06 1/sM

Q: And the Specificity Constant (kcat/Km) [5]?
A: 1.15e+06 1/sM

Q: And the Specificity Constant (kcat/Km) [6]?
A: 634000 1/sM

Q: And the Specificity Constant (kcat/Km) [7]?
A: 1.69e+06 1/sM

Q: What about the Specificity Constant (kcat/Km) [8] of the same substance?
A: 454000 1/sM

Q: What about the Specificity Constant (kcat/Km) [9] of the same substance?
A: 377000 1/sM

Q: And the Specificity Constant (kcat/Km) [10]?
A: 191000 1/sM

Q: What about the Specificity Constant (kcat/Km) [11] of the same substance?
A: 528000 1/sM

Q: What about the Specificity Constant (kcat/Km) [12] of the same substance?
A: 973000 1/sM

Q: And the Specificity Constant (kcat/Km) [13]?
A: 1.29e+06 1/sM

Q: What about the Specificity Constant (kcat/Km) [14] of the same substance?
A: 1.1e+06 1/sM

Q: And the Specificity Constant (kcat/Km), substrate 5 uM [15]?
A: 2.57e+06 1/sM

Q: What about the “cleavage seen on a gel” value [16] of the same substance?
A: type IV collagen digestion gave 3-4 detectable cleavage products (85 kDa, 80 kDa, 35 kDa and 28 kDa

Q: And the Specificity Constant (kcat/Km) [17]?
A: 1.14e+06 1/sM

Q: And the Specificity Constant (kcat/Km) [18]?
A: 598000 1/sM

Q: And the Specificity Constant (kcat/Km) [19]?
A: 1.76e+06 1/sM

Q: What about the Specificity Constant (kcat/Km) [20] of the same substance?
A: 1.41e+06 1/sM

Q: What about the Specificity Constant (kcat/Km) [21] of the same substance?
A: 2.32e+06 1/sM

Q: What about the Specificity Constant (kcat/Km) [22] of the same substance?
A: 1.54e+06 1/sM

Q: What about the Specificity Constant (kcat/Km) [23] of the same substance?
A: 2.33e+06 1/sM

Q: What about the Specificity Constant (kcat/Km) [24] of the same substance?
A: 2.69e+06 1/sM

Q: And the Specificity Constant (kcat/Km) [25]?
A: 862000 1/sM

Q: What about the Specificity Constant (kcat/Km) [26] of the same substance?
A: 230000 1/sM

Q: And the “sensitivity for collagenase 3 against the consensus substrate FlSb1” value [27]?
A: 100-fold less sensitive for collagenase 3 compared to the consensus substrate

Q: What about the Specificity Constant (kcat/Km) [28] of the same substance?
A: 887000 1/sM

Q: What about the Specificity Constant (kcat/Km) [29] of the same substance?
A: 677000 1/sM

Q: What about the Specificity Constant (kcat/Km) [30] of the same substance?
A: 885000 1/sM

Q: And the Specificity Constant (kcat/Km) [31]?
A: 900000 1/sM

Q: What about the Specificity Constant [32] of the same substance?
A: 421000 1/sM

Q: What about the Specificity Constant, 0.85 to 2.10 Hours, + 1.6 ug/ml TIICol [32] of the same substance?
A: 1.54e+06 1/sM

Q: And the Specificity Constant, 0.85 to 2.10 Hours, + 4.9 ug/ml TIICol [32]?
A: 1.88e+06 1/sM

Q: And the Specificity Constant, 0.85 to 2.10 Hours, + 15 ug/ml TIICol [32]?
A: 2.25e+06 1/sM

Q: What about the Specificity Constant, 0.85 to 2.10 Hours, + 44 ug/ml TIICol [32] of the same substance?
A: 2.55e+06 1/sM

Q: What about the Specificity Constant, 0.85 to 2.10 Hours, + .18 ug/ml TIICol [32] of the same substance?
A: 1.33e+06 1/sM

Q: And the Specificity Constant, 0.85 to 2.10 Hours, + .55 ug/ml TIICol [32]?
A: 1.47e+06 1/sM

Q: And the Specificity Constant, 0.85 to 2.10 Hours, no TIICol [32]?
A: 1.11e+06 1/sM

Q: And the Specificity Constant, + Gel [32]?
A: 471000 1/sM

Q: What about the Specificity Constant (kcat/Km), + 1:1 Gelatin [33] of the same substance?
A: 340000 1/sM

Q: And the Specificity Constant (kcat/Km), + 1:4 Gelatin [33]?
A: 562000 1/sM

Q: And the Specificity Constant (kcat/Km), + 1:16 Gelatin [33]?
A: 1.93e+06 1/sM

Q: And the Specificity Constant (kcat/Km), + 1:64 Gelatin [33]?
A: 2.67e+06 1/sM

Q: And the Specificity Constant (kcat/Km), + 1:256 Gelatin [33]?
A: 4.65e+06 1/sM

Q: And the Specificity Constant (kcat/Km), + H2O [33]?
A: 3.16e+06 1/sM

Q: And the Specificity Constant (kcat/Km) [34]?
A: 980000 1/sM

Q: And the Specificity Constant (kcat/Km) [35]?
A: 91700 1/sM

Q: And the Specificity Constant (kcat/Km) [36]?
A: 4.46e+06 1/sM

Q: And the Specificity Constant (kcat/Km) [37]?
A: 1.04e+06 1/sM

Q: What about the Specificity Constant (kcat/Km) [38] of the same substance?
A: 3.92e+06 1/sM

Q: And the Specificity Constant (kcat/Km) [39]?
A: 3.73e+06 1/sM

Q: What about the Specificity Constant (kcat/Km) [40] of the same substance?
A: 813000 1/sM

Q: What about the Specificity Constant [41] of the same substance?
A: 32700 1/sM

Q: What about the Specificity Constant, + Gel [41] of the same substance?
A: 26900 1/sM

Q: What about the Specificity Constant (kcat/Km) [42] of the same substance?
A: 868000 1/sM

Q: What about the Specificity Constant (kcat/Km) [43] of the same substance?
A: 734000 1/sM

Q: What about the Specificity Constant (kcat/Km) [44] of the same substance?
A: 1.76e+06 1/sM

Q: What about the Specificity Constant (kcat/Km) [45] of the same substance?
A: 1.28e+06 1/sM

Q: And the “cleavage seen on a gel” value [46]?
A: Cleavage of biglycan generated peptide fragments of 28, 17, 8, and 6 kDa

Q: What about the Specificity Constant (kcat/Km) [47] of the same substance?
A: 5.66e+06 1/sM

Q: And the Specificity Constant (kcat/Km) [48]?
A: 338000 1/sM

Q: What about the Specificity Constant (kcat/Km) [49] of the same substance?
A: 1.3e+06 1/sM

Q: What about the Specificity Constant (kcat/Km) [50] of the same substance?
A: 284000 1/sM

Q: With gelatinase B as the substance, how does the Selectivity v. Coll-3, substrate 5 uM [15] read?
A: 217 unitless

Q: What about the “cleavage seen on a gel” value [16] of the same substance?
A: Both collagenase 1 and gelatinase B processed type IV collagen under the conditions used in our experiments

Q: And the “cleavage seen on a gel” value [46]?
A: stromelysin 1 and gelatinase B being able to degrade this proteoglycan

Q: How did the Selectivity v. Coll-3, substrate 5 uM [15] turn out when stromelysin 1 was run?
A: 400 unitless

Q: And the “cleavage seen on a gel” value [46]?
A: stromelysin 1 and gelatinase B being able to degrade this proteoglycan

Reference: patent US20030229005
